The text below walks through data of patent US20250171562A1.

Sequences and labels used below:
B1: NIgG4D1A1(G4S)2 (Fc fusion)
chain 1: DVQLQESGGGLVQAGGSLRLSCAASGLTFSRCDMGWFRQAPGKEREFVARISANGASTHYADFVKGRFTISRDNAKNTVYLQMNYLKPEDTAVYICAAARVPVTWQLYDYWGQGTQVTVSGGGGSGGGGSGPPCPPCPAPEFLGGPSVFLFPPKPKDTLMISRTPEVTCVVVDVSQEDPEVQFNWYVDGVEVHNAKTKPREEQFNSTYRVVSVLTVLHQDWLNGKEYKCKVSNKGLPSSIEKTISKAKGQPREPQVYTLPPCQEEMTKNQVSLWCLVKGFYPSDIAVEWESNGQPENNYKTTPPVLDSDGSFFLYSRLTVDKSRWQEGNVFSCSVMHEALHNHYTQKSLSLSLGK
chain 2: EVQLLESGGGLVQPGGSLRLSCAASGFTFGNYDMAWVRQAPGKRPEWVSSIDTGGDITHYADSVKGRFTISRDNAKNTLYLQMNSLRPEDTAVYWCATDEEYALGPNEFDYYGQGTLVTVSSGGGGSGGGGSGPPCPPCPAPEFLGGPSVFLFPPKPKDTLMISRTPEVTCVVVDVSQEDPEVQFNWYVDGVEVHNAKTKPREEQFNSTYRVVSVLTVLHQDWLNGKEYKCKVSNKGLPSSIEKTISKAKGQPREPQVCTLPPSQEEMTKNQVSLSCAVKGFYPSDIAVEWESNGQPENNYKTTPPVLDSDGSFFLVSRLTVDKSRWQEGNVFSCSVMHEALHNHYTQKSLSLSLGK
B2: NIgG4D1A1(G4S)1 (Fc fusion)
chain 1: DVQLQESGGGLVQAGGSLRLSCAASGLTFSRCDMGWFRQAPGKEREFVARISANGASTHYADFVKGRFTISRDNAKNTVYLQMNYLKPEDTAVYICAAARVPVTWQLYDYWGQGTQVTVSGGGGSGPPCPPCPAPEFLGGPSVFLFPPKPKDTLMISRTPEVTCVVVDVSQEDPEVQFNWYVDGVEVHNAKTKPREEQFNSTYRVVSVLTVLHQDWLNGKEYKCKVSNKGLPSSIEKTISKAKGQPREPQVYTLPPCQEEMTKNQVSLWCLVKGFYPSDIAVEWESNGQPENNYKTTPPVLDSDGSFFLYSRLTVDKSRWQEGNVFSCSVMHEALHNHYTQKSLSLSLGK
chain 2: EVQLLESGGGLVQPGGSLRLSCAASGFTFGNYDMAWVRQAPGKRPEWVSSIDTGGDITHYADSVKGRFTISRDNAKNTLYLQMNSLRPEDTAVYWCATDEEYALGPNEFDYYGQGTLVTVSSGGGGSGPPCPPCPAPEFLGGPSVFLFPPKPKDTLMISRTPEVTCVVVDVSQEDPEVQFNWYVDGVEVHNAKTKPREEQFNSTYRVVSVLTVLHQDWLNGKEYKCKVSNKGLPSSIEKTISKAKGQPREPQVCTLPPSQEEMTKNQVSLSCAVKGFYPSDIAVEWESNGQPENNYKTTPPVLDSDGSFFLVSRLTVDKSRWQEGNVFSCSVMHEALHNHYTQKSLSLSLGK
B3: CIgG4B2A1(G4S)3 (Fc fusion)
chain 1: GPPCPPCPAPEFLGGPSVFLFPPKPKDTLMISRTPEVTCVVVDVSQEDPEVQFNWYVDGVEVHNAKTKPREEQFNSTYRVVSVLTVLHQDWLNGKEYKCKVSNKGLPSSIEKTISKAKGQPREPQVYTLPPCQEEMTKNQVSLWCLVKGFYPSDIAVEWESNGQPENNYKTTPPVLDSDGSFFLYSRLTVDKSRWQEGNVFSCSVMHEALHNHYTQKSLSLSLGKGGGGSGGGGSGGGGSQVQLVESGGGLVQAGGSLRLSCAVFGSTFSNNVADWYRQAPGKQRELVARISASGATREYGDSVKGRFTISRDDAKNTMYLQMNNLKPEDTAVYRCHKIEWEDLSRKDYWGQGTQVTVS
chain 2: GPPCPPCPAPEFLGGPSVFLFPPKPKDTLMISRTPEVTCVVVDVSQEDPEVQFNWYVDGVEVHNAKTKPREEQFNSTYRVVSVLTVLHQDWLNGKEYKCKVSNKGLPSSIEKTISKAKGQPREPQVCTLPPSQEEMTKNQVSLSCAVKGFYPSDIAVEWESNGQPENNYKTTPPVLDSDGSFFLVSRLTVDKSRWQEGNVFSCSVMHEALHNHYTQKSLSLSLGKGGGGSGGGGSGGGGSEVQLLESGGGLVQPGGSLRLSCAASGFTFGNYDMAWVRQAPGKRPEWVSSIDTGGDITHYADSVKGRFTISRDNAKNTLYLQMNSLRPEDTAVYWCATDEEYALGPNEFDYYGQGTLVTVSS
B4: NIgG4D1A1(RS) (Fc fusion)
chain 1: DVQLQESGGGLVQAGGSLRLSCAASGLTFSRCDMGWFRQAPGKEREFVARISANGASTHYADFVKGRFTISRDNAKNTVYLQMNYLKPEDTAVYICAAARVPVTWQLYDYWGQGTQVTVSRSGPPCPPCPAPEFLGGPSVFLFPPKPKDTLMISRTPEVTCVVVDVSQEDPEVQFNWYVDGVEVHNAKTKPREEQFNSTYRVVSVLTVLHQDWLNGKEYKCKVSNKGLPSSIEKTISKAKGQPREPQVYTLPPCQEEMTKNQVSLWCLVKGFYPSDIAVEWESNGQPENNYKTTPPVLDSDGSFFLYSRLTVDKSRWQEGNVFSCSVMHEALHNHYTQKSLSLSLGK
chain 2: EVQLLESGGGLVQPGGSLRLSCAASGFTFGNYDMAWVRQAPGKRPEWVSSIDTGGDITHYADSVKGRFTISRDNAKNTLYLQMNSLRPEDTAVYWCATDEEYALGPNEFDYYGQGTLVTVSSRSGPPCPPCPAPEFLGGPSVFLFPPKPKDTLMISRTPEVTCVVVDVSQEDPEVQFNWYVDGVEVHNAKTKPREEQFNSTYRVVSVLTVLHQDWLNGKEYKCKVSNKGLPSSIEKTISKAKGQPREPQVCTLPPSQEEMTKNQVSLSCAVKGFYPSDIAVEWESNGQPENNYKTTPPVLDSDGSFFLVSRLTVDKSRWQEGNVFSCSVMHEALHNHYTQKSLSLSLGK
B5: NIgG4D1A1(G4S)3 (Fc fusion)
chain 1: DVQLQESGGGLVQAGGSLRLSCAASGLTFSRCDMGWFRQAPGKEREFVARISANGASTHYADFVKGRFTISRDNAKNTVYLQMNYLKPEDTAVYICAAARVPVTWQLYDYWGQGTQVTVSGGGGSGGGGSGGGGSGPPCPPCPAPEFLGGPSVFLFPPKPKDTLMISRTPEVTCVVVDVSQEDPEVQFNWYVDGVEVHNAKTKPREEQFNSTYRVVSVLTVLHQDWLNGKEYKCKVSNKGLPSSIEKTISKAKGQPREPQVYTLPPCQEEMTKNQVSLWCLVKGFYPSDIAVEWESNGQPENNYKTTPPVLDSDGSFFLYSRLTVDKSRWQEGNVFSCSVMHEALHNHYTQKSLSLSLGK
chain 2: EVQLLESGGGLVQPGGSLRLSCAASGFTFGNYDMAWVRQAPGKRPEWVSSIDTGGDITHYADSVKGRFTISRDNAKNTLYLQMNSLRPEDTAVYWCATDEEYALGPNEFDYYGQGTLVTVSSGGGGSGGGGSGGGGSGPPCPPCPAPEFLGGPSVFLFPPKPKDTLMISRTPEVTCVVVDVSQEDPEVQFNWYVDGVEVHNAKTKPREEQFNSTYRVVSVLTVLHQDWLNGKEYKCKVSNKGLPSSIEKTISKAKGQPREPQVCTLPPSQEEMTKNQVSLSCAVKGFYPSDIAVEWESNGQPENNYKTTPPVLDSDGSFFLVSRLTVDKSRWQEGNVFSCSVMHEALHNHYTQKSLSLSLGK
B6: CIgG4D1A1(RS) (Fc fusion)
chain 1: GPPCPPCPAPEFLGGPSVFLFPPKPKDTLMISRTPEVTCVVVDVSQEDPEVQFNWYVDGVEVHNAKTKPREEQFNSTYRVVSVLTVLHQDWLNGKEYKCKVSNKGLPSSIEKTISKAKGQPREPQVYTLPPCQEEMTKNQVSLWCLVKGFYPSDIAVEWESNGQPENNYKTTPPVLDSDGSFFLYSRLTVDKSRWQEGNVFSCSVMHEALHNHYTQKSLSLSLGKRSDVQLQESGGGLVQAGGSLRLSCAASGLTFSRCDMGWFRQAPGKEREFVARISANGASTHYADFVKGRFTISRDNAKNTVYLQMNYLKPEDTAVYICAAARVPVTWQLYDYWGQGTQVTVS
chain 2: GPPCPPCPAPEFLGGPSVFLFPPKPKDTLMISRTPEVTCVVVDVSQEDPEVQFNWYVDGVEVHNAKTKPREEQFNSTYRVVSVLTVLHQDWLNGKEYKCKVSNKGLPSSIEKTISKAKGQPREPQVCTLPPSQEEMTKNQVSLSCAVKGFYPSDIAVEWESNGQPENNYKTTPPVLDSDGSFFLVSRLTVDKSRWQEGNVFSCSVMHEALHNHYTQKSLSLSLGKRSEVQLLESGGGLVQPGGSLRLSCAASGFTFGNYDMAWVRQAPGKRPEWVSSIDTGGDITHYADSVKGRFTISRDNAKNTLYLQMNSLRPEDTAVYWCATDEEYALGPNEFDYYGQGTLVTVSS

The target of this assay is mixture of three Der p 2 specific recombinant human IgE clones H10, H12, P4E (human) (UniProt P01854). The assay is described as follows: RBL-SX38 IgE displacement, FACS.
Chain of mixture of three Der p 2 specific recombinant human IgE clones H10, H12, P4E (human) (P01854 other isoform, or with tags, fused parts or gaps): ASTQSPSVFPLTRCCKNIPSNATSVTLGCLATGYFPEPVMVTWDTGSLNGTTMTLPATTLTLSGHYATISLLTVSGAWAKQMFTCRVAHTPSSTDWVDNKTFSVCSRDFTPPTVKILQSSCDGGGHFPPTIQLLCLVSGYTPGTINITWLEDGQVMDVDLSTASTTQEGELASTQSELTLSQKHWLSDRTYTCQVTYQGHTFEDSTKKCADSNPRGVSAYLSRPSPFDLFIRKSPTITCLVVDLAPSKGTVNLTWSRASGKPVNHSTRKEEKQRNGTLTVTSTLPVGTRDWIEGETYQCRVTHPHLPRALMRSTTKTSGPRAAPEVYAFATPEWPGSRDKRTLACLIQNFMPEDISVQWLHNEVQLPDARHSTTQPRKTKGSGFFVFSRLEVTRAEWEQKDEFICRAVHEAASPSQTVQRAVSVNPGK
B1: the EC50 was 1.6 nM and the Max effect/effect 1 µM came to 100%. With B2, the EC50 came out at 1.4 nM and the Max effect/effect 1 µM was 99%. Regarding B3, the concentration for a half-maximal effect (EC50) turned out to be 1.5 nM and the Max effect/effect 1 µM came out at 98%.

Take B4: the 50% effective concentration (EC50) came out at 1.6 nM and the Max effect/effect 1 µM came out at 97%. The corresponding values for B5 are 2 nM and 99%. Consider B6, for which the Max effect/effect 1 µM was found to be 16%.

As a reminder, the EC50 is the concentration at which the effect is half-maximal.
